Measurements as given in US20120251580A1.
Each block holds one substance with its values, some of them ahead of it.

How the values were obtained:
[1] = biological target: purified recombinant galectin-3 (gal3) (UniProt P17931); assay: solid phase assay, inhibition of gal3 binding to asialofetuin
[2] = biological target: N-terminal of gal9 (gal9N); assay: solid phase assay, inhibition of gal9N binding to asialofetuin
[3] = biological target: purified recombinant galectin-3 (gal3) (UniProt P17931); assay: solid phase assay, inhibition of gal3 binding to plate-bound asialofetuin (competitor)
[4] = biological target: purified recombinant galectin-3 (gal3) (UniProt P17931); assay: cell-based or functional assay
[5] = biological target: prostate cancer patient serum-associated gal3 (human) (UniProt P17931); assay: cell-based or functional assay
Sequence of prostate cancer patient serum-associated gal3 (human) (P17931 2-250 limits assumed): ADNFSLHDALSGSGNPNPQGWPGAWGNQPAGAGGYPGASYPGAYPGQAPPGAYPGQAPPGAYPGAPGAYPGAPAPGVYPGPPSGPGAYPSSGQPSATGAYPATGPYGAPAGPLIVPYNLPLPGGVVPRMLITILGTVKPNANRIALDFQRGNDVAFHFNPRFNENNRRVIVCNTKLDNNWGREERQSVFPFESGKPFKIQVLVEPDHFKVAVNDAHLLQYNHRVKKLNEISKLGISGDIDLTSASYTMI

[6] = biological target: gal3 on the surface of B16 melanoma cells (murine) (UniProt P16110); assay: cell-based or functional assay
Sequence of gal3 on the surface of B16 melanoma cells (murine) (P16110 2-264): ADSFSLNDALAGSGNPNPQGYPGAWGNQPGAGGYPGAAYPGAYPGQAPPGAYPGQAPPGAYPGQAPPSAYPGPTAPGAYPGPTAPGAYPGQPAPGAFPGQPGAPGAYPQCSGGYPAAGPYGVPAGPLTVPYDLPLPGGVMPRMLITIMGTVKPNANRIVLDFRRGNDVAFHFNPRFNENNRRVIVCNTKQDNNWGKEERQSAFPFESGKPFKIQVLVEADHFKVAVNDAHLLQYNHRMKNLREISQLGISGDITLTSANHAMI

[7] = biological target: gal3 on the surface of human PC3 and HUVEC cells (human) (UniProt P17931); assay: cell-based or functional assay
Sequence of gal3 on the surface of human PC3 and HUVEC cells (human) (P17931 2-250): as the sequence (P17931 2-250 limits assumed) above

[8] = biological target: purified recombinant galectin-3 (gal3) (UniProt P17931); assay: SPR (Biacore T200), biotinylated gal3 captured on SA chip, 1:1 binding model
[9] = biological target: purified recombinant galectin-3 (gal3) (UniProt P17931); assay: solid phase assay, inhibition of gal3 binding to asialofetuin, molar basis
[10] = biological target: N-terminal of gal9 (gal9N); assay: solid phase assay, inhibition of gal9N binding to plate-bound asialofetuin (competitor), anti-galectin antibody detection
[11] = biological target: purified recombinant galectin-3 (gal3) (UniProt P17931); assay: SPR (Biacore T200), derived from the dissociation rate
gal4 [12] = assay: solid phase assay, inhibition of gal4 binding to plate-bound asialofetuin (competitor), anti-galectin antibody detection
gal4 [13] = assay: solid phase assay, inhibition of gal4 binding to asialofetuin
[14] = biological target: purified recombinant galectin-3 (gal3) (UniProt P17931); assay: SPR (Biacore T200), biotinylated gal3 captured on SA chip, TFD100 0.312-10 nM, 1:1 binding model
[15] = biological target: gal3 on the surface of B16 melanoma cells (murine) (UniProt P16110); assay: flow cytometry on B16 melanoma cells (unstained cells 214), control
[16] = biological target: gal3 on the surface of human PC3 and HUVEC cells (human) (UniProt P17931); assay: flow cytometry on HUVEC cells (unstained cells 97), control
[17] = biological target: gal3 on the surface of human PC3 and HUVEC cells (human) (UniProt P17931); assay: flow cytometry on PC3 cells (unstained cells 205), control

Sequence of purified recombinant galectin-3 (gal3) (P17931 whole entry, the tested form may be a part): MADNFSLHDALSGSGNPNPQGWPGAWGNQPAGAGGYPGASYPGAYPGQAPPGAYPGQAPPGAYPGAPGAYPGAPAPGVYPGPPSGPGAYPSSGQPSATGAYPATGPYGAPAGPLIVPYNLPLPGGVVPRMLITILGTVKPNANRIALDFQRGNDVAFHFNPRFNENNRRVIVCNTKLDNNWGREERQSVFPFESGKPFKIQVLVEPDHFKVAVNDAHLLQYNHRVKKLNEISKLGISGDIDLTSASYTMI

RIA (relative inhibitory activity compared to lactose taken as 1) (fold vs lactose) [2]: 66700
IC50 [3]: 0.25 nM
apoptosis of activated pmel CD8+ T cells with 5 µM recombinant gal3 plus 3.5 nM TFD100 (˜76% with gal3 alone, ˜61% CD8 alone) [4]: 72 % apoptosis
inhibition of gal3 (5 µM)-induced apoptosis of MOLT-4 cells by 3.5 nM TFD100 (annexin V binding) [4]: 34%
inhibition of gal3 (5 µM)-induced apoptosis of human CD8+ T cells by 3.5 nM TFD100 [4]: 77%
inhibition of gal3 (5 µM)-mediated apoptosis of Jurkat cells by 3.5 nM TFD100 [4]: 63%
apoptosis of activated tumor-specific CD8+ cells with patient serum plus 3.5 nM TFD100 (87-93% with patient serum alone) [5]: 66 % apoptosis
apoptosis of activated tumor specific CD8+ T cells on a B16 monolayer with 3.5 nM TFD100 (about 53% without) [6]: 36 % apoptosis
inhibition of binding of calcein-labeled PC3 cells to HUVEC monolayer (PC3 pre-treated with 3.5 nM TFD100) [7]: 33%
inhibition of tumor-endothelial cell interactions (HUVEC monolayer pre-incubated with 3.5 nM TFD100) [7]: 45%
koff [8]: 0.0003 s⁻¹
kon [8]: 3.1e+06 M⁻¹ s⁻¹
fold activity in inhibiting gal3 binding compared to free TFD [9]: 800000 fold
IC50 [10]: 1.5 nM
RIA (relative inhibitory activity compared to lactose taken as 1) (fold vs lactose) [1]: 400000
half-life for the complex [11]: 38.5 min
IC50 (gal4 [12]): 1.2 nM
RIA (relative inhibitory activity compared to lactose taken as 1) (fold vs lactose) (gal4 [13]): 8.33e+06
Kd [14]: 0.0968 nM
Substance: TFD100 (Thomsen-Friedenreich disaccharide-containing glycopeptide of approximately 100 kDa purified from Pacific cod, Gadus macrocephalus)

IC50 [1]: 300 µg/mL
RIA (relative inhibitory activity compared to lactose taken as 1) (relative to lactose = 1) [1]: 0.09
Substance: Fraction 4 (<10 kDa, >3 kDa) of cod anti-freeze glycoproteins

RIA (relative inhibitory activity compared to lactose taken as 1) (relative to lactose = 1) [1]: < 0.06
Substance: Fraction 5 (<3 kDa) of cod anti-freeze glycoproteins

mean fluorescence unit (mfu) [15]: 1000 mfu
mean fluorescence unit (mfu) [16]: 95 mfu
mean fluorescence unit (mfu) [17]: 759 mfu
Substance: pre-immune IgG (protein A-Sepharose purified pre-immune rabbit serum) (antibody)

IC50 [1]: 108 µg/mL
RIA (relative inhibitory activity compared to lactose taken as 1) (relative to lactose = 1) [1]: 0.25
Substance: Crude extract (crude anti-freeze glycoproteins of cod, A/F Protein)

The next lines start with the substance.

Substance: Fraction 1 (>50 kDa) of cod anti-freeze glycoproteins
IC50 [1]: 2.5 µg/mL
RIA (relative inhibitory activity compared to lactose taken as 1) (relative to lactose = 1) [1]: 10.5

Substance: Fraction 3 (<30 kDa, >10 kDa) of cod anti-freeze glycoproteins
IC50 [1]: 82 µg/mL
RIA (relative inhibitory activity compared to lactose taken as 1) (relative to lactose = 1) [1]: 0.33

Substance: O-glycosidase treated TFD100
% inhibition at 6.2 nM [1]: 45%

Substance: Fraction 2 (<50 kDa, >30 kDa) of cod anti-freeze glycoproteins
IC50 [1]: 27 µg/mL
RIA (relative inhibitory activity compared to lactose taken as 1) (relative to lactose = 1) [1]: 1
